Measurements published in US20250084142A1 (INTARCIA THERAPEUTICS, published 2025).
Starred links: 1 amine or outer side, 2 acyl side, 3 side chain; linkers in the order of their positions; H or OH if unused. Non-standard residues stand in square brackets, D forms with d. Groups on a side chain read outwards from the residue. No end group written: not given here. *: point of attachment. dpeg = —[CO(CH2)O(CH2)2O(CH2)NH]— spacer, O=C(COCCOCN[*:1])[*:2]; C20 diacid = O=C(O)CCCCCCCCCCCCCCCCCCC(=O)*; γGlu = O=C(O)[C@H](CCC(=O)[*:2])N[*:1]

T1: NPY2R
T1 sequence (P49146 1-381, species assumed, looked up): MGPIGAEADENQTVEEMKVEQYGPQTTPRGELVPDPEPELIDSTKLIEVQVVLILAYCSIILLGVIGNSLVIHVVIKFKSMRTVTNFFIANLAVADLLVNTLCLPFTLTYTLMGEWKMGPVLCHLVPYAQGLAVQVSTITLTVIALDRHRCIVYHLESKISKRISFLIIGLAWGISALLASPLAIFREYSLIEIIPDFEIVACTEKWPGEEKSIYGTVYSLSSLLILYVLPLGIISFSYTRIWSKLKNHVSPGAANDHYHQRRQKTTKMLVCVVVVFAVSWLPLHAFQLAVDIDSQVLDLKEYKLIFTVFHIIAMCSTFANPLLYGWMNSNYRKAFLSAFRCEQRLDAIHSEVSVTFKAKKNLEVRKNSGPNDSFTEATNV

T2: NPY5R
T2 sequence (Q15761 1-445, species assumed, looked up): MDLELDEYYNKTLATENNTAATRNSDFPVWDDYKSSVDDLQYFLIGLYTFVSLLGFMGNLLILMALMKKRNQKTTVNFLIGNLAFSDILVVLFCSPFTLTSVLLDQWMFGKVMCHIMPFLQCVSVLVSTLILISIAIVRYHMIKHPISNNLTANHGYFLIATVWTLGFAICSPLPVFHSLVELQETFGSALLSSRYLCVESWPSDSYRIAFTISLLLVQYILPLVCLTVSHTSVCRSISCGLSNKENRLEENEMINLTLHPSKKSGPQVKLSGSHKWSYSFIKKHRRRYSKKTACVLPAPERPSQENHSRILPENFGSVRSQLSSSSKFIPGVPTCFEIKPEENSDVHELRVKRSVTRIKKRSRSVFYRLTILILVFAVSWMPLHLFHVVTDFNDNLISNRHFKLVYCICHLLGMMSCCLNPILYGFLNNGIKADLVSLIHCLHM


Tests used:
NPY2R = target: T1, NPY2R; experiment: cell-based or functional assay
NPY5R = target: T2, NPY5R; experiment: cell-based or functional assay

| Binder | NPY2R pEC50 (NPY2R) | NPY5R pEC50 (NPY5R) |
| --- | --- | --- |
| PKPEAPGK([γGlu-γGlu-C20 diacid])DASPEEWQRYYKDLRHYLNWLTRQRF-NH2 [Compound A23] | 10.4 -Log(EC50, M) | 8.6 -Log(EC50, M) |
| PKPEKPGK([γGlu-γGlu-C20 diacid])DASPEEWNRYYKDLRHYLNWLTRQRF-NH2 (N-terminus assumed; SMILES CC(C)C[C@H](NC(=O)[C@H](CC(=O)O)NC(=O)[C@H](CCCCN)NC(=O)[C@H](Cc1ccc(O)cc1)NC(=O)[C@H](Cc1ccc(O)cc1)NC(=O)[C@H](CCCNC(=N)N)NC(=O)[C@H](CC(N)=O)NC(=O)[C@H](Cc1c[nH]c2ccccc12)NC(=O)[C@H](CCC(=O)O)NC(=O)[C@H](CCC(=O)O)NC(=O)[C@@H]1CCCN1C(=O)[C@H](CO)NC(=O)[C@H](C)NC(=O)[C@H](CC(=O)O)NC(=O)[C@H](CCCCNC(=O)CC[C@H](NC(=O)CC[C@H](NC(=O)CCCCCCCCCCCCCCCCCCC(=O)O)C(=O)O)C(=O)O)NC(=O)CNC(=O)[C@@H]1CCCN1C(=O)[C@H](CCCCN)NC(=O)[C@H](CCC(=O)O)NC(=O)[C@@H]1CCCN1C(=O)[C@H](CCCCN)NC(=O)[C@@H]1CCCN1)C(=O)N[C@@H](CCCNC(=N)N)C(=O)N[C@@H](Cc1c[nH]cn1)C(=O)N[C@@H](Cc1ccc(O)cc1)C(=O)N[C@@H](CC(C)C)C(=O)N[C@@H](CC(N)=O)C(=O)N[C@@H](Cc1c[nH]c2ccccc12)C(=O)N[C@@H](CC(C)C)C(=O)N[C@H](C(=O)N[C@@H](CCCNC(=N)N)C(=O)N[C@@H](CCC(N)=O)C(=O)N[C@@H](CCCNC(=N)N)C(=O)N[C@@H](Cc1ccccc1)C(N)=O)[C@@H](C)O) [Compound A19] | 10.5 -Log(EC50, M) | 8.7 -Log(EC50, M) |
| PKPEAPGK([γGlu-γGlu-C20 diacid])DASPEEWTRYYKDLRHYLNWLTRQRF-NH2 [Compound A26] | 10.7 -Log(EC50, M) | 8.5 -Log(EC50, M) |
| PKPEAPGK([γGlu-γGlu-C20 diacid])DASPKEWNRYYKDLRHYLNWLTRQRF-NH2 [Compound A20] | 10.5 -Log(EC50, M) | 8.7 -Log(EC50, M) |
| PKPEAPG[dK]([γGlu-γGlu-C20 diacid])DASPEEWNRYYADLRHYLNWLTRQRF-NH2 [Compound A15] | 10.2 -Log(EC50, M) | 8 -Log(EC50, M) |
| PKPEAPGKDASPEEWNRYYK([γGlu-dpeg-dpeg-γGlu-C20 diacid])DLRHYLNWLTRQRF-NH2 [Compound A16] | 10.2 -Log(EC50, M) | 9.1 -Log(EC50, M) |
| PKPEAPGK([γGlu-γGlu-C20 diacid])DASPEEWNRYY[dK]DLRHYLNWLTRQRF-NH2 [Compound A21] | 10.4 -Log(EC50, M) | 8.3 -Log(EC50, M) |
| PKPEAPGK([γGlu-γGlu-C20 diacid])DASPEEWSRYYKDLRHYLNWLTRQRF-NH2 [Compound A25] | 10.9 -Log(EC50, M) | 8.4 -Log(EC50, M) |
| PKPEAPGK([γGlu-γGlu-C20 diacid])DASPEEWDRYYKDLRHYLNWLTRQRF-NH2 [Compound A24] | 10.5 -Log(EC50, M) | 8.7 -Log(EC50, M) |
